In US20160068595A1 one finds Kd, koff and kon data, which are given here for 1 molecule.

Experiment [1] addresses human IL-20 (interleukin-20), recombinant (human) (UniProt Q9NYY1). Put plainly: SPR, BIAcore T100; antibody captured on anti-human IgG CM5 chip, IL-20 as analyte, 1:1 model. In general terms: SPR reads the build-up and loss of mass on a sensor chip optically.
The target is the same in experiment [2]. Briefly: binding kinetics of CDR mutants; method not named.

human IL-20 (interleukin-20), recombinant (human), sequence (Q9NYY1 25-176 limits assumed): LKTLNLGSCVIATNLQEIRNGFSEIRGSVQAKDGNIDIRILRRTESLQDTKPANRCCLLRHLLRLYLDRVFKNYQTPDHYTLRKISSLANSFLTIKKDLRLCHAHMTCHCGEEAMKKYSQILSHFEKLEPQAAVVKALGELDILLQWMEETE

B1: HH12 humanized anti-IL-20 antibody (antibody, V domains shown)
VH: EVQLQESGGGLVQPGGSLRLSCAASGFTFSDAWMDWVRQAPGKGLEWVGEIRSKANNYATYFAESVKGRFTISRDDSKNSLYLQMNSLKTEDTGVYYCTKLSLRYWFFDVWGQGTLVTVSS
VL: DIQMTQSPLSLSVTPGQPASISCKSSQSLLDSDGKTYLNWYQQKPGQSPQLLIYLVSKLDSGVPDRFSGSGSGTDFTLKISRVEAEDVGVYYCWQSTHFPWTFGQGTKVEIKR
As for B1, in experiment [1], the Kd was 2.68 nM, the koff stood at 0.00358 s⁻¹ and the kon came out at 1.34e+06 M⁻¹ s⁻¹. In experiment [2], the Kd turned out to be 2.68 nM, the koff was 0.00358 s⁻¹ and the kon was determined as 1.34e+06 M⁻¹ s⁻¹.

Usually Kd stands for the concentration at which binding is half-saturated. As usually defined, the koff is the first-order rate constant of dissociation. The kon is a measure of how fast the partners come together.
